# Assay results as given in patent US20130101549A1 (Biogen, published 2013).
# T1: human HVEM-Ig (human, UniProt Q92956 39-202)
# T1 construct: Expressed and purified in house; also called HVEM-Fc; Herpes virus entry mediator-Ig
# T1 sequence (looked up): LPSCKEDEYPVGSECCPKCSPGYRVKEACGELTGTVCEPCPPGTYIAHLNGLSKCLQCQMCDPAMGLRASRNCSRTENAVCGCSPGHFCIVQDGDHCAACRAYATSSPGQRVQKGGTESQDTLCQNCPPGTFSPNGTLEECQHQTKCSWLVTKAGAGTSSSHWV
# B1: 71F10 Fab-hLIGHT fusion with the (G4S)4 linker (BIIB71F10-132) (other)
# heavy: EVQLLESGGGLVQPGGSLRLSCAASGFTFSSYGMVWVRQAPGKGLEWVSSISSSGGLTWYADSVKGRFTISRDNSKNTLYLQMNSLRAEDTAVYYCASPPGIAVARDYWGQGTLVTVSSASTKGPSVFPLAPSSKSTSGGTAALGCLVKDYFPEPVTVSWNSGALTSGVHTFPAVLQSSGLYSLSSVVTVPSSSLGTQTYICNVNHKPSNTKVDKKVEPKSCDKGGGGSGGGGSGGGGSGGGGSNPAAHLTGANSSLTGSGGPLLWETQLGLAFLRGLSYHDGALVVTKAGYYYIYSKVQLGGVGCPLGLASTITHGLYKRTPRYPEELELLVSQQSPCGRATSSSRVWWDSSFLGGVVHLEAGEEVVVRVLDERLVRLRDGTRSYFGAFMV
# light: DIQMTQSPSSLSASVGDRVTITCRASQGISNYLAWYQQKPGKVPKLLIYAASTLQSGVPSRFSGSGSGTDFTLTISSLQPEDVATYYCQKYNSALLTFGGGTKVEIKRTVAAPSVFIFPPSDEQLKSGTASVVCLLNNFYPREAKVQWKVDNALQSGNSQESVTEQDSKDSTYSLSSTLTLSKADYEKHKVYACEVTHQGLSSPVTKSFNRGEC
# notes: Trimer of Fab-LIGHT units; also called 71F10 Fab-(G4S)4-LIGHT
# Columns and labels:
# [1] = biological target: T1, human HVEM-Ig; test: FACS (HVEM column of Table 2; format not told there)
# [2] = biological target: T2, murine LTβR-Ig (mouse, UniProt P50284 31-223); test: ELISA, muLTBR-Ig coated at 0.2 ug/ml, HRP goat anti-human kappa; the number is C of the printed 4-P fit (A 0.064, B 0.872, D 1.453, R^2 0.999); Fab-Light is BIIB71F10-132 by paragraph 502
# T2 construct: Expressed and purified in house; also called mLTbR; murine LTBR-Ig
# Protocol: (§1) Human and murine ErbB2-Fc were obtained from R&D Systems. Wells of 96-well plates were coated with 2 ug/ml or 0.2 ug/ml of human or murine HER2-Fc by incubation overnight at 4-8° C. with either of these six proteins (80 ul/well of a 0.2 or 2 ug/ml solution in PBS). Wells were emptied, filled completely with a solution of PBS with 1% BSA (blocking buffer) and incubated at room temperature for 1 hour. Wells were emptied, washed twice PBS containing 0.05% Tween 20 (PBST) and filled with the samples (80 ul/well of 3× dilution series of the standard and supernatants in blocking buffer) prepared in another 96-well plate. After a 2-hour incubation at room temperature, the wells were emptied, washed three times with PBST and filled with a solution of HRP-conjugated goat pAbs anti-human kappa chain (80 ul/well of a 2000-fold dilution in blocking buffer). After 1-hour incubation, the wells were emptied and filled with a solution of HRP substrate prepared freshly. The color was left to develop for 3 minutes and was stopped by addition of an equal volume of 1N H₂SO₄. Absorbance was measured at 450 nm using a Plate Reader (SpectraMax, Molecular Devices). The data was processed and graphs were created using SoftMax Pro software.
# (§2) Human and murine LTBR-Ig were expressed and purified in house.
# [3] = biological target: T3, human HER2-Fc (human, UniProt P04626 23-652); test: ELISA on coated HER2-Fc
# T3 construct: Bought from R&D Systems: homodimeric fusion of the HER2 extracellular domain and human IgG1 Fc; also called human ErbB2-Fc; rhErbB2-Fc; not shown: Fc fragment of human IgG1
# Protocol: as §1
# [4] = biological target: T4, human LTβR-Ig (human, UniProt P36941 31-227); test: ELISA, huLTBR-Ig coated at 2 ug/ml, HRP goat anti-human kappa; the number is C of the printed 4-P fit (A 0.025, B 0.807, D 1.574, R^2 0.998); Fab-Light is BIIB71F10-132 by paragraph 502
# T4 construct: Expressed and purified in house; also called hLTbR-Ig; human LTBR-Ig
# Protocol: as §1, §2
# [5] = biological target: T2, murine LTβR-Ig; test: ELISA, muLTBR-Ig coated at 2 ug/ml, HRP goat anti-human kappa; the number is C of the printed 4-P fit (A 0.093, B 0.898, D 1.613, R^2 0.995); Fab-Light is BIIB71F10-132 by paragraph 502
# Protocol: as §1, §2
# [6] = biological target: T5, IGFR-Ig (UniProt P08069 31-932); test: ELISA on IGFR-Ig, dilutions of medium of transfected CHO cells; the linker version of the control fusion is not named on the sheet
# T5 construct: not shown: Ig part not specified
# [7] = biological target: T1, human HVEM-Ig; test: ELISA, huHVEM-Ig coated at 2 ug/ml, HRP goat anti-human kappa; the number is C of the printed 4-P fit (A 0.064, B 0.959, D 1.517, R^2 0.999); Fab-Light is BIIB71F10-132 by paragraph 503
# Protocol: as §1
# Human and murine HVEM-Ig were expressed and purified in house.
# [8] = biological target: T6, murine HER2-Fc (mouse; human, UniProt P70424 23-653); test: ELISA on coated muHER2-Fc, HRP anti-human kappa; the number is C of the printed 4-P fit (A -0.025, B 0.883, D 0.935, R^2 0.999); x axis: Fab equivalent concentration
# T6 construct: extracellular domain; Bought from R&D Systems; also called murine ErbB2-Fc; not shown: Fc fragment of human IgG1
# Protocol: as §1, with “Wells” for “Human and murine ErbB2-Fc were obtained from R&D Systems. Wells”, “coated” for “coated with 2 ug/ml or 0.2 ug/ml of human or murine HER2-Fc”, “goat antibodies against human kappa chain” for “either of these six proteins”, “5” for “0.2 or 2”
# Human and murine HER2-Fc (homodimeric fusion proteins consisting of the extracellular domain of HER2 and the Fc fragment of human IgG1) were obtained from R&D Systems. […]
# T2 sequence (P50284 31-223): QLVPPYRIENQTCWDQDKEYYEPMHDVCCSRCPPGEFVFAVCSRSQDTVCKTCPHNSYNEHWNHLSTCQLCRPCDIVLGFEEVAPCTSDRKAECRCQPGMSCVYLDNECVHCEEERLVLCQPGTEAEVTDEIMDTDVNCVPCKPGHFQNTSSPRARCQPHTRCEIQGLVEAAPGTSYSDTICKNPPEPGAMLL
# T4 sequence (P36941 31-227): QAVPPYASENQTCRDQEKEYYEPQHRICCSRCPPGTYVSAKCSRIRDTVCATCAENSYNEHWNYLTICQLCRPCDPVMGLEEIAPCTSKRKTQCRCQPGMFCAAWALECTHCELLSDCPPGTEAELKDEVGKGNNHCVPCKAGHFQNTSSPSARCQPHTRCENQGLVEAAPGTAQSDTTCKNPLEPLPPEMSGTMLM
# T6 sequence (P70424 23-653): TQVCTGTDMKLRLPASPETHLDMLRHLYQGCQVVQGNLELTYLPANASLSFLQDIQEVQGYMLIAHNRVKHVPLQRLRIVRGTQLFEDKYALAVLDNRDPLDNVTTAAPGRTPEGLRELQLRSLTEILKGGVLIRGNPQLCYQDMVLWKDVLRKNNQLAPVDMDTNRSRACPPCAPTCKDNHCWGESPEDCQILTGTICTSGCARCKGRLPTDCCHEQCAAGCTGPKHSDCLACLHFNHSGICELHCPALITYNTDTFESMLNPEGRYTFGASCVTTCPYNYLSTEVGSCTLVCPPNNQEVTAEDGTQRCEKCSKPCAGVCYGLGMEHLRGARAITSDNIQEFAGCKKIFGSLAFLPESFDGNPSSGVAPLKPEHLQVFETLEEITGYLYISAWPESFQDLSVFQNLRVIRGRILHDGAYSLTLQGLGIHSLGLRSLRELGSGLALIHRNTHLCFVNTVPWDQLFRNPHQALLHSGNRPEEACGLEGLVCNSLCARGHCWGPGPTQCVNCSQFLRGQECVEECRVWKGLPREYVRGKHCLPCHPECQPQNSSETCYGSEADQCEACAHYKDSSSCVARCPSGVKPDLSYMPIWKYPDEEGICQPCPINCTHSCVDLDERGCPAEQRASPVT
binder,measurement,setting,value
B1,EC50,[1],0.5 nM
same,EC50,[2],0.0588 µg/mL
same,EC50,[3],0.05 nM
same,EC50,[4],2.69 ng/mL
same,EC50,[5],3.57 ng/mL
same,binding result,[6],no binding (tested: dilution 1.00 (undiluted medium))
same,EC50,[7],2.45 ng/mL
same,EC50,[8],0.0122 µg/mL
